Experiment in all cases: ITC
The target of test [1] is H2B (1–27) unmodified peptide (Homo sapiens). The following applies: domain or fragment; chains chain; fluorescently labeled with a His tag Labeling Kit (microscale thermophoresis only).
The target of test [2] is H4 (1–20) K5ac/K8ac peptide (Homo sapiens). The following applies: domain or fragment.
For test [3], the target named is H4 (1–20) unmodified peptide (Homo sapiens). The following applies: domain or fragment; chains chain; fluorescently labeled with a His tag Labeling Kit (microscale thermophoresis only).

Sequence of H2B (1–27) unmodified peptide (Homo sapiens) (main, as listed by the source): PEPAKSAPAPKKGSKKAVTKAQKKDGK

B1: human p300BRP (residues 1048–1282), wild type, Q09472 1048-1282 (protein)
chain: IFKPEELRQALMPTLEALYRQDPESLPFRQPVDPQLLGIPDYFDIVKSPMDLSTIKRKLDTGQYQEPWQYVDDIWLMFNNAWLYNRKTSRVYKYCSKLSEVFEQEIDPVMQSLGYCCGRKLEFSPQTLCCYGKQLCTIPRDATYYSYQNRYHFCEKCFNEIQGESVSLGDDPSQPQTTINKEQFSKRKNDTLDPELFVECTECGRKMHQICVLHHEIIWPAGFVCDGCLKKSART
For the molecule B1, the Kd is more than 500 µM in test [1], 240 µM in test [2] and more than 500 µM in test [3].

Source of the values: PMC10352329.
